Source: US12006503B2, “Fusion proteins and methods thereof” (The Trustees of Columbia University in the City of New York, priority 2012, dated 2024)

How the values were obtained:
[1] = system: Rat1; assay: Subcutaneous tumor xenografts formed by transduced Rat1 cells; type: in vivo, rat; conditions: Rat1 cells expressing the construct
[2] = system: Balb 3T3; assay: Soft agar colony assay, Balb 3T3 cells; type: cell-based; conditions: Balb 3T3 cells transduced with the construct
[3] = system: Rat1; assay: Soft agar colony assay, Rat1 cells; type: cell-based, rat; conditions: Rat1 cells transduced with the construct
Source text: FGFR1-TACC1 and FGFR3-TACC3 induce anchorage-independent growth in Rat1A fibroblasts. The number of soft agar colonies was scored from triplicate samples 14 days after plating. Representative microphotographs are shown.

[4] = system: Ink4A;Arf-/- astrocytes in immunodeficient mice; assay: Subcutaneous tumor xenograft formation by lentivirus-transduced Ink4A;Arf-/- astrocytes; type: in vivo, mouse; conditions: Ink4Arf-/- astrocytes expressing the construct
Source text: FIG. 3B are photomicrographs showing of immunofluoresence staining of tumors from mice injected with Ink4A; Arf−/− astrocytes expressing FGFR3-TACC3 showing positivity for glioma-specific (Nestin, Oig2 and GFAP) and proliferation markers (Ki67 and pHH3). Sub-cutaneous tumors were generated by Ink4A; Arf−/− astrocytes expressing FGFR-TACC fusions.
Subcutaneous xenografts and drug treatment. […] For experiments with FGFR inhibitors, mice carrying ˜200-300 mm 3 subcutaneous tumors derived from Ink4A; Arf−/− astrocytes were randomized to receive 50 mg/kg PD173074 in 0.05 M lactate buffer (pH 5) or an equal volume of lactate buffer by oral gavage. Treatment was administered for three cycles consisting of four consecutive days followed by two days of rest. […] Data are expressed as mean±SE.

[5] = system: Rat1A cells; assay: Karyotype analysis (chromosome counts, aneuploidy) of Rat1A cells; type: cell-based, rat; conditions: Rat1A cells, 100 cells counted
Method: Distribution of chromosome counts of cells arrested in mitosis and analyzed for karyotypes using DAPI. Chromosomes were counted in 100 metaphase cells for each condition to determine the ploidy and the diversity of chromosome counts within the cell population. FGFR3-TACC3 fusion induces aneuploidy.
The upper panel is a karyotype analysis of Rat1A cells transduced with control or FGFR3-TACC3 lentivirus and treated with vehicle (DMSO) or PD173470 (100 nM) for five days.
Karyotype analysis. Cultured cells were colcemid (20 ng/ml) treated for 90 minutes before harvesting for karyotopic analysis as detailed in Extended Experimental procedures. At least one hundred cells in metaphase were examined for chromosome count. PMSCS was scored in cells where a majority of the sister chromosomes were no longer associated. Two-tailed unpaired t-tests with Welch's correction were performed for comparison of means analysis.
Karyotypic Analysis. The colcemid treated cells were trypsinized, centrifuged for 7 minutes at 200×g, and the cell pellet re-suspended in warmed hypotonic solution and incubated at 37° C. for 13 minutes. The swollen cells were then centrifuged and the pellet re-suspended in 8 ml of Carnoy's fixative (3:1 methanol:glacial acetic acid). The cell suspension was centrifuged and washed twice in Carnoy's fixative. After the last centrifugation, the cells were resuspended in 0.5 to 1 ml of freshly prepared fixative to produce an opalescent cell suspension. Drops of the final cell suspension were placed on clean slides and air-dried. Slides were stained with DAPI and metaphases were analyzed under a fluorescent microscope.

B1: FGFR3: wild type FGFR3 expressed by lentivirus (protein, listed as Homo sapiens)
chain: MGAPACALALCVAVAIVAGASSESLGTEQRVVGRAAEVPGPEPGQQEQLVFGSGDAVELSCPPPGGGPMGPTVWVKDGTGLVPSERVLVGPQRLQVLNASHEDSGAYSCRQRLTQRVLCHFSVRVTDAPSSGDDEDGEDEAEDTGVDTGAPYWTRPERMDKKLLAVPAANTVRFRCPAAGNPTPSISWLKNGREFRGEHRIGGIKLRHQQWSLVMESVVPSDRGNYTCVVENKFGSIRQTYTLDVLERSPHRPILQAGLPANQTAVLGSDVEFHCKVYSDAQPHIQWLKHVEVNGSKVGPDGTPYVTVLKTAGANTTDKELEVLSLHNVTFEDAGEYTCLAGNSIGFSHHSAWLVVLPAEEELVEADEAGSVYAGILSYGVGFFLFILVVAAVTLCRLRSPPKKGLGSPTVHKISRFPLKRQVSLESNASMSSNTPLVRIARLSSGEGPTLANVSELELPADPKWELSRARLTLGKPLGEGCFGQVVMAEAIGIDKDRAAKPVTVAVKMLKDDATDKDLSDLVSEMEMMKMIGKHKNIINLLGACTQGGPLYVLVEYAAKGNLREFLRARRPPGLDYSFDTCKPPEEQLTFKDLVSCAYQVARGMEYLASQKCIHRDLAARNVLVTEDNVMKIADFGLARDVHNLDYYKKTTNGRLPVKWMAPEALFDRVYTHQSDVWSFGVLLWEIFTLGGSPYPGIPVEELFKLLKEGHRMDKPANCTHDLYMIMRECWHAAPSQRPTFKQLVEDLDRVLTVTSTDEYLDLSAPFEQYSPGGQDTPSSSSSGDDSVFAHDLLPPAPPSSGGSRT
- Subcutaneous tumor xenografts (tumors formed/injections) [1]: 0/5
- soft agar colonies [2]: 0
- soft agar colonies [3]: 0
- Subcutaneous tumor xenografts (tumors formed/injections) [4]: 0/5
- Average variation from mean number [5]: 1.3
- Mean number (chromosomal number) [5]: 42.1
- Percent aneuploidy [5]: 33%
- Range (chromosomal number) [5]: 35-44
